# According to paper PMC3547041:
# Target: Type II Hsp40 Sis1 (S. cerevisiae (endogenous in yeast)) (UniProt P25294)
# Assay: co-IP; yeast cell extracts in Buffer A (150 mM NaCl, 50 mM Hepes pH 7.4, 1 mM EDTA, 0.1% Triton X-100), indicated antisera 1 hour at 4°C, Protein G beads, immunoblotting; extracts with or without Apyrase (Ssa1); WT or Δhsp104 strain (Sis1)
# Sequence of UniProt P25294 (P25294 whole entry): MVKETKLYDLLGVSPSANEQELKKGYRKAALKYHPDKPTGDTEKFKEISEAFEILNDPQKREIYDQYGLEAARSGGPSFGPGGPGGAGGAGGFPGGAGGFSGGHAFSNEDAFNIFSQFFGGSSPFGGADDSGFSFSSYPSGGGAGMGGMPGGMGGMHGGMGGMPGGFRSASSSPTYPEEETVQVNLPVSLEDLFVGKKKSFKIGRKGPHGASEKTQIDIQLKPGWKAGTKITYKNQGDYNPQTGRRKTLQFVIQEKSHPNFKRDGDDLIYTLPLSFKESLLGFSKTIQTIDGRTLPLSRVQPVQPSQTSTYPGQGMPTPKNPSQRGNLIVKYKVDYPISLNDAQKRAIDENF
substance,measurement,value
short-lived GFP (slGFP),fold change of immunoprecipitable Sis1:slGFP complexes in Δhsp104 against WT,1.5 fold
